Columns and labels:
[1] = test system: TNF-a, RANKL, IL-1β, CCL-2, MMP-1, MMP-3, IL-6, VCAM-1; experiment: Semiquantitative reverse transcription PCR of inflammatory mediators in CIA mouse foot tissue; type: in vivo; conditions: CIA mouse articulation tissue, FIG. 21
Protocol: The distribution of inflammation in the foot tissue may be somewhat differently observed according to the regions, and its quantitative research is difficult. Thus, in the hind leg of a mouse CIA model treated with MFK24, the change in inflammatory mediators according to the onset of arthritis was measured by a semiquantitative reverse transcription PCR method using a Taqman probe, as described below.
From a mouse CIA model, a foot tissue was separated, and its skin was removed. The remaining tissue was grinded by a tissue homogenizer, and an extraction reagent (Easy-spim™, Intron) was used to extract all RNAs. They were quantified, and for 7 μg of RNA, a reverse transcriptase reaction was carried out by using AMV reverse transcriptase (Roche, 0.5 ul), oligo dT (Roche, 1 ul), and 10 mM dNTP (Takara, 2 ul) RNase inhibitor (Roche, 0.1 ul). For TNF-a, RANKL, IL-1β, CCL-2, MMP-1, MMP-3, IL-6, VCAM-1 and 18S RNA of a mouse, semiquantitative PCR was performed by using primers (Bioneer, Daejeon) and a Taqman probe (Roche, Germany) in LC480 (Roche, Germany), so as to determine the number of transcripts. Quantitative analysis of the transcripts was performed through comparison with 18S RNA transcripts. The primer pairs for the semiquantitative PCR are noted in [table8].

[2] = target: T1, MMP-1 secreted from a human Synovial membrane cell (Homo sapiens, UniProt P03956); experiment: Culture analysis of enzymatic digestion in IL-1β stimulated human FLS; type: cell-based; conditions: 1 uM peptide, 3 and 6 hours, IL-1β 0.1 ng/ml
T1 construct: MFK24 peptide cleaved by MMP-1 secreted from a human Synovial membrane cell; endogenous in cells; host or cells: human fibroblast-like synoviocytes (human synovial membrane cell line) stimulated with 0.1 ng/ml IL-1β
T1 sequence (P03956 100-469): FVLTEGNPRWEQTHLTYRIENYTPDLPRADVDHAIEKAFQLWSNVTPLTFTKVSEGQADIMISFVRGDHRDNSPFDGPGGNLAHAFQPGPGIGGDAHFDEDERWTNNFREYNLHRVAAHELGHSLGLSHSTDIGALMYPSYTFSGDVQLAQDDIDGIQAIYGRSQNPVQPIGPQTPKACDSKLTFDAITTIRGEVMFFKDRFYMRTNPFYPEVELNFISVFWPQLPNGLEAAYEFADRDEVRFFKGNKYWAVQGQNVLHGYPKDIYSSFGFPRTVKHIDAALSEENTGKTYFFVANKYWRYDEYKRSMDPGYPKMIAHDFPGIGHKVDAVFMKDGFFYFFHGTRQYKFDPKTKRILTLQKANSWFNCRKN
Protocol: In order to determine if MFK24 is well adhered to cells and in actuality cleaved by MMP-1, human FLS (fibroblast-like synovicyte) was treated with IL-1β so as to amplify the expression of MMP-1. Then, MFK24 was added in a culture medium and cultured.
In a culture medium of DMEM+10% FBS (fetal bovine serum)+2% penicillin, streptomycin, a human Synovial membrane cell line was cultured for 2 days, added with 0.1 ng/ml IL-1β, and stimulated for 24 hours. The cell line was treated with mdhFas-1-MMPsubstrate-RGD structural peptide (1 uM), and stimulated for 3 hours and 6 hours. Then, by using an anti-βig-h3 antibody recognizing mdhfas-1, and an anti-histidine antibody recognizing C-terminal histidine-tag, the amount of peptide was determined.

B1: MFK24: fusion peptide having sequential links of mdhFas-1, MMP1 substrate GPQGIAG (SEQ ID NO: 6), and QERGDSLA (SEQ ID NO: 10) (protein)
chain: QAMPPEELNKLLANAKELTNILKYHIGDEILVSGGIGALVRLKSLQGDKLEVSSKNNVVSVNKEPVAETDIMEFGPQGIAGVDGQERGDSLAGLE
modifications: MFK24
For B1, the “number of transcripts of inflammatory mediators compared to arthritis control group” value [1] was “significantly reduced” and the “cleavage in FLS culture (anti-histidine vs anti-βig-h3)” value [2] was “cleaved by MMP-1 secreted from a Synovial membrane cell”.
